Results on 2 molecules are retold here after CN115703837A (DONGGUAN PENGZHI BIOTECHNOLOGY CO LTD, dated 2023).

The target in test [1] is T1, 生长刺激表达基因2蛋白(ST2)抗原 (UniProt Q01638-2 19-328, limits assumed).
T1 construct: also called sST2; IL1RL1
T1 sequence (looked up): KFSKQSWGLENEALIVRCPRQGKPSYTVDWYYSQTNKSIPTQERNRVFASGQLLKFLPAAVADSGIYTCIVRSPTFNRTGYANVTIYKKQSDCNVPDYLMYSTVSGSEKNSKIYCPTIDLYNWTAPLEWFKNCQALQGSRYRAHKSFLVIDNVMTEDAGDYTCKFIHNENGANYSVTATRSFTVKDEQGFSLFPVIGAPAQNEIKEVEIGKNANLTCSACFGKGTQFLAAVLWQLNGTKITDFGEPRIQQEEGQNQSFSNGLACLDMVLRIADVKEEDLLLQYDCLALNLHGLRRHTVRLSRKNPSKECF
Description: BLI, AMC sensor, antibody immobilised at 10 ug/ml, ST2 antigen in serial dilution. On the technique in general: Biolayer interferometry detects binding as a change in optical thickness at a sensor tip.

Test [2] deals with T1, 生长刺激表达基因2蛋白(ST2)抗原. Description: sandwich ELISA, antibody at 0.000 ng/ml (blank, no antibody), ST2 antigen, HRP anti-ST2 mAb detection. For orientation: An ELISA detects its analyte on a solid surface through an enzyme-linked reagent.
Test [3] concerns the target T1, 生长刺激表达基因2蛋白(ST2)抗原. Description: sandwich ELISA, antibody at 1.953 ng/ml captured on goat anti-mouse IgG, ST2 antigen, HRP anti-ST2 mAb detection.
The target in test [4] is T1, 生长刺激表达基因2蛋白(ST2)抗原. Description: sandwich ELISA, antibody at 3.906 ng/ml captured on goat anti-mouse IgG, ST2 antigen, HRP anti-ST2 mAb detection.
For test [5], the target named is T1, 生长刺激表达基因2蛋白(ST2)抗原. Description: sandwich ELISA, antibody at 7.813 ng/ml captured on goat anti-mouse IgG, ST2 antigen, HRP anti-ST2 mAb detection.
For test [6], the target named is T1, 生长刺激表达基因2蛋白(ST2)抗原. Description: sandwich ELISA, antibody at 15.625 ng/ml captured on goat anti-mouse IgG, ST2 antigen, HRP anti-ST2 mAb detection.
In test [7] the target is T1, 生长刺激表达基因2蛋白(ST2)抗原. Description: sandwich ELISA, antibody at 31.250 ng/ml captured on goat anti-mouse IgG, ST2 antigen, HRP anti-ST2 mAb detection.

In general, Kd refers to the free concentration of one partner at which half of the binding sites on the other are occupied at equilibrium, for simple one-to-one binding. Higher therefore signals lower affinity. A word on the koff: it is the first-order rate constant of dissociation. Read a low koff as a long-lived complex. The kon is the second-order rate constant of association. Low readings indicate slow association, high ones fast association. On to 对照 (antibody), for which, in test [1], the Kd is 7.3 nM. The molecule further came in with a koff in test [1] of 0.00723 s⁻¹. In test [1], the kon turned out to be 990000 M⁻¹ s⁻¹. For the same molecule, the OD450 (ref 630) in test [2] amounted to 0.046 OD; in test [3], 0.163 OD; in test [4], 0.26 OD; in test [5], 0.37 OD; in test [6], 0.665 OD; in test [7] it was 1.51 OD.

B1: Anti-ST2 11F9 (antibody, V domains shown)
VH: QIQLVQSGPELKKPGETVKLSCKASGYTFTDYSIHWVKQAPGKGLKWMGWIHTETGEPTYADDFKGRFAFSLETSASTAYFQINNLRNEDTATYFCARDDGLDYWGQGTSVTVSS
VL: DVQMIQSPSSLSASLGDIVTMTCQASQDTNINLNWFQQKPGKAPELLIYDTNNLEDGVPSRFSGSRYGTDFTLTISSLEDEDMATYFCLQHSYLPLTFGAGTKLELK
Consider B1, for which, in test [1], the affinity, expressed as Kd, was 0.761 nM; the koff was found to be 0.000745 s⁻¹; the kon is 979000 M⁻¹ s⁻¹.
